In assay [1] the target is T1, TRAF1 F347L mutant (Homo sapiens, UniProt Q13077, F347L).
T1 construct: the TRAF1 TRAF domain (amino acid residues 220-416); 6xHis (C); made in house; host or cells: E. coli BL21 (DE3)
T1 sequence (Q13077 220-416 F347L): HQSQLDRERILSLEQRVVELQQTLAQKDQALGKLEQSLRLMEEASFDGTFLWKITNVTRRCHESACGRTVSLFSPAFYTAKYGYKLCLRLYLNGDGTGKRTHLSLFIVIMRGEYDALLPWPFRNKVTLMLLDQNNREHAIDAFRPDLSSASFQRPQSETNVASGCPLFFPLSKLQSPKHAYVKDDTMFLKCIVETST
Put plainly: Isothermal titration calorimetry (ITC), TRAF1 F347L mutant. The format is binding. The settings on record: Supplementary Figure S2a,b. From the text: To understand how TRAF1 binds with higher affinity to TANK and caspase-2, we compared the amino acid sequence of the receptor-binding hot spots on TRAF1 and TRAF2. There are three well-known hot spots in TRAFs (Figure 5a). Based on the sequence comparison, two amino acid residues in TRAF1, F347 of hot spot1 and A369 of hot spot2, were not conserved in TRAF2 (Figure 5b). As the two non-conserved amino acid residues of TRAF1 may generate different conditions for receptor-binding regions and affect its affinity for various receptors, we compared the receptor-binding regions between TRAF1 and TRAF2 by comparing the TRAF1:TANK structure with the TRAF2:latent membrane protein 1 (LMP1) structure (Figure 5c). […] S454 of TRAF2 was not critical for the formation of an H-bond cluster, unlike residues S453 and S455, which were closely located to the Q at the P0 position of the receptor peptide. […] However, F347 on TRAF1 (corresponding to L432 on TRAF2) was critical for determining receptor preference and binding affinity by contributing to the formation of a stable hydrophobic pocket in the hot spot1 motif.
A NanoITC (TA Instruments) was used for isothermal titration calorimetry experiments. […] Binding isotherms were analyzed by using the software provided by TA Instruments. […]
On the technique in general: Isothermal titration calorimetry measures the heat released or taken up as one component is titrated into another.

The target of assay [2] is T2, TRAF1 TRAF domain (amino acid residues 220-416) (UniProt Q13077 220-416).
T2 construct: TRAF1 (TNF receptor-associated factor 1), TRAF domain, residues 220-416; it speaks of 'trimeric TRAF1'; source: E. coli BL21 (DE3), purified (Ni-NTA, SEC); not shown: His6, C-terminal, kept
T2 sequence (looked up): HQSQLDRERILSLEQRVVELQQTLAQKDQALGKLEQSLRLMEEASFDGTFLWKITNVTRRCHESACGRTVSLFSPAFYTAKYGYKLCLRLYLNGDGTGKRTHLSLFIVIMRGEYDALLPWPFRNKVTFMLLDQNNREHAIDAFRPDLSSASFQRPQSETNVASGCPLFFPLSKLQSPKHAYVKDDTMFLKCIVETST
The experiment in a line: SPR; Biacore T200; His-tagged TRAF domain held on Ni-NTA chip; TRADD-N 0.39-3.125 uM flowed over in PBS, 30 uL/min. The settings on record: both partners purified. A general note: In SPR one partner is held on a chip, and binding of the other changes the refractive index at the surface.

For assay [3], the target named is T3, TRAF2 TRAF domain (amino acid residues 305-501) (UniProt Q12933 305-501).
T3 construct: TRAF2 (TNF receptor-associated factor 2), TRAF domain, residues 305-501; it speaks of 'the three subunits of TRAF2'; source: E. coli BL21 (DE3), purified (Ni-NTA, SEC); not shown: His6, C-terminal, kept
T3 sequence (looked up): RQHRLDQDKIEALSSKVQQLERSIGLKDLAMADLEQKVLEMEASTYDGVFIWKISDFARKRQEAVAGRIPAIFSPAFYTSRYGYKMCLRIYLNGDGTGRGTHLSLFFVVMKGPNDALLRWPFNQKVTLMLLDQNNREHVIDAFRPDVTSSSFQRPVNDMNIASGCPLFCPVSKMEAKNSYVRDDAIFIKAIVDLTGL
The assay is described as above. The settings on record: both partners purified.

A further assay addresses TRAF2 S454A mutant (UniProt Q12933). Put plainly: ITC; TRADD with TRAF2 S454A mutant; who was titrated and conditions not told for this experiment.
Assay [4] concerns the target T2, TRAF1 TRAF domain (amino acid residues …). The experiment in a line: ITC; NanoITC; peptide (1 mM) injected into the cell with TRAF domain (~20 uM); PBS; 15 °C; 25 injections; single site model. The settings on record: both partners purified.
Assay [5] addresses T3, TRAF2 TRAF domain (amino acid residues …). The assay is described as above. The settings on record: both partners purified.
Assay [6] concerns the target TRAF1 F347L mutant (UniProt Q13077). The assay is described as above.

Residues, ends and D or L forms follow the SMILES beside them.

Regarding `CC[C@H](C)[C@H](NC(=O)[C@@H]1CCCN1C(=O)[C@@H](NC(=O)[C@@H](N)CO)C(C)C)C(=O)N[C@@H](CCC(N)=O)C(=O)N[C@@H](CS)C(=O)N[C@H](C(=O)N[C@@H](CC(=O)O)C(=O)N[C@@H](CCCCN)C(=O)N[C@H](C(=O)O)[C@@H](C)O)[C@@H](C)O` [TANK] (H-SVPIQCTDKT-OH), on TRAF1 F347L mutant [1], the Kd (in general, the equilibrium constant for the complex coming apart) was roughly 15 µM.

B1: N-terminal domain of TRADD (TRADD-N, amino acid residues 1-163) (domain or fragment, UniProt Q15628 1-163, looked up)
chain: MAAGQNGHEEWVGSAYLFVESSLDKVVLSDAYAHPQQKVAVYRALQAALAESGGSPDVLQMLKIHRSDPQLIVQLRFCGRQPCGRFLRAYREGALRAALQRSLAAALAQHSVPLQLELRAGAERLDALLADEERCLSCILAQQPDRLRDEELAELEDALRNLK
notes: TRADD (tumor necrosis factor receptor type 1-associated death domain protein), N-terminal domain, residues 1-163; Cloned into pET24a by NdeI and XhoI; source: E. coli, purified (almost identical to the method for TRAF1 and TRAF2; SEC in 20 mM Tris-HCl pH 8.0, 150 mM NaCl)
Turning to B1, the Kd amounted to 0.082 µM in assay [2], 0.018 µM in assay [3] and 0.055 µM with TRAF2 S454A mutant.

As to SVPIQCTDKT (source: synthetic peptide (Peptron)) [TANK peptide (SVPIQCTDKT)], the Kd in assay [4] came to 2.5 µM; in assay [5] it was 11.7 µM.

For the molecule TAQEM (source: synthetic peptide (Peptron)) [caspase-2 peptide (TAQEM)], the dissociation constant (Kd) came to 265 µM in the assay with TRAF1 F347L mutant [6], 86.9 µM in assay [4] and 117 µM in assay [5].

These data come from PMC7215387, “Comparison of Target Recognition by TRAF1 and TRAF2” (International Journal of Molecular Sciences, 2020).
